Key:
[1] = biological target: CD8 on CD8-positive cells (PBMCs in Example 1, Immuno-Trol cells in Example 3) (UniProt P01732); assay: negative control; magnetic bead depletion of Immuno-Trol cells, flow cytometry of the supernatant (41% before addition of beads)
[2] = biological target: CD8 on CD8-positive cells (PBMCs in Example 1, Immuno-Trol cells in Example 3) (UniProt P01732); assay: negative control; magnetic bead depletion of Immuno-Trol cells, flow cytometry of the supernatant (59% before addition of beads)
[3] = biological target: CD4 on CD4-positive cells (PBMCs) (UniProt P01730); assay: negative control; cells trapped by beads, released with DNase I, flow cytometry
[4] = biological target: CD8 on CD8-positive cells (PBMCs in Example 1, Immuno-Trol cells in Example 3) (UniProt P01732); assay: as above
[5] = biological target: CD8 on CD8-positive cells (PBMCs in Example 1, Immuno-Trol cells in Example 3) (UniProt P01732); assay: negative control; magnetic bead depletion of PBMCs, flow cytometry of the supernatant (28% before addition of beads)
[6] = biological target: CD8 on CD8-positive cells (PBMCs in Example 1, Immuno-Trol cells in Example 3) (UniProt P01732); assay: negative control; magnetic bead depletion of PBMCs, flow cytometry of the supernatant (72% before addition of beads)
[7] = biological target: CD4 on CD4-positive cells (PBMCs) (UniProt P01730); assay: negative control; magnetic bead depletion of PBMCs, flow cytometry of the supernatant (18% before addition of beads)
[8] = biological target: CD4 on CD4-positive cells (PBMCs) (UniProt P01730); assay: negative control; magnetic bead depletion of PBMCs, flow cytometry of the supernatant (82% before addition of beads)

UniProt P01732, sequence (P01732 22-235): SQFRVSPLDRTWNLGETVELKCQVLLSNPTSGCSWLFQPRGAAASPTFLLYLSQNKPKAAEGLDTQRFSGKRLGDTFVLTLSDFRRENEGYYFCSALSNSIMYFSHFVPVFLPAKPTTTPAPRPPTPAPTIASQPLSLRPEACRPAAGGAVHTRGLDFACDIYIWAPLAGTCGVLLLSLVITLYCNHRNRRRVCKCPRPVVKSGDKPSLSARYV

| Ratio of CD3-positive and CD4-negative cells remaining in the supernatant [1] | Ratio of CD3-positive and CD4-positive cells remaining in the supernatant [2] | Ratio of FITC-positive cells [3] | Ratio of FITC-positive cells [4] | Ratio of CD3-positive and CD4-negative cells remaining in the supernatant [5] | Ratio of CD3-positive and CD4-positive cells remaining in the supernatant [6] | Ratio of CD3-positive and CD8-positive cells remaining in the supernatant [7] | Ratio of CD3-positive and CD8-negative cells remaining in the supernatant [8] | Substance |
| --- | --- | --- | --- | --- | --- | --- | --- | --- |
| 39% | 61% | – | – | – | – | – | – | Control antibody (Biolegend), held on streptavidin magnetic beads through oligo-DNA-modified Protein A/G |
| – | – | 26% | 19% | 33% | 67% | 19% | 81% | Isotype Control antibody (Biolegend), modified with FITC-introduced synthetic oligo-DNA linker and immobilized on streptavidin magnetic beads |

From patent US20250003958A1
